Results on three substances are retold here after publication PMC11467389.

Series [1] is described as follows: Western blot of endogenous PDK1 in ST2 cells. To be noted: glycan lost; control: rhWnt3a alone. (In general: A western blot detects proteins with antibodies after separation by electrophoresis.)
A short description of series [2]: CHX chase of Flag-PDK1, Western blot (half-life). To be noted: glycan lost; control: rhWnt3a alone.
A short description of series [3]: MG132 6 h, Flag IP, ubiquitin blot. To be noted: glycan lost; control: Flag-PDK1 WT.
Series [4] in a line: CHX chase, anti-Flag Western blot (half-life). To be noted: glycan lost; control: Flag-PDK1 WT.

Turning to “PDK1 (pyruvate dehydrogenase kinase 1): DON”, in series [1], the expression_or_secretion entry is recorded as “decreases”.
For the substance “PDK1 (pyruvate dehydrogenase kinase 1): OSMI”, the degradation_or_half_life result in series [2] was “decreases”.
On to “PDK1 (pyruvate dehydrogenase kinase 1): S174A”, for which the “other: ubiquitination” value in series [3] is listed as “increases”. Moreover, the degradation_or_half_life entry in series [4] is on record as “decreases”.
